Source: the nanobody polyreactivity screen of Harvey et al. (2022)

Assay: yeast display, Sf9 membrane polyspecificity reagent, FACS + sequencing; frameworks hold sequencing errors
Procedure, shortened: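 Nanobodies from a synthetic yeast display library (Saccharomyces cerevisiae BJ5465), induced 36–48 hours with galactose, were stained 1 hour at 4 °C with 10% biotinylated, detergent-solubilized Sf9 membrane reagent, enriched on streptavidin microbeads, then FACS-sorted. Anti-HA (expression) and streptavidin (reagent binding) fluorescence set low and high (top ~1%) gates. Polyreactivity labels come from the gate of origin. Genes were colony-PCR amplified, MiSeq 2 × 250 sequenced and filtered by CDR length.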

Row | Sequence | polyreactivity (PSR sort gate)
1 | QVQLVDSGGGLVQAGGSLRLSCAASGRTFQRNAMGWYRQAPGTERELVATITTNGGSTYYADSVKGRFTISRDNAKNTVYLQMNSLKPEDTAVYYCAAPFNPRVRTLRSVRMDYWGQGTQVTVSS | low polyreactivity
2 | QVQLVESGGGLVQAGGSLRLSCAASGRIFRKYDMGWYRPAPGKERELVAAISGTGITYYADSVKGRFTISRDNAKNTVYLQMNSLKPEDTAVYYCARGSKPRAWSWAYPSATSIYDYWGQGTQVTVSS | low polyreactivity
3 | QVQLVESRGGLVQAGGSLRLSCAASGSTFSPYVMGWYREAPGKERELFAAIRGRGGNTYYADSVKGRFTISRDNAKNTVYLQMNSLKPEDSAVYYCAAQSFAQYGWRYGDWGQVTQVTVSS | high polyreactivity
4 | QVQLVESGGGLDQARGSLRLSCAASGRTFWTNVMGWYRQAPGKERELVAAITSSTDSTYYADSVKGRFTISLDNAKNTVYLQMNSLKPEDTAVYYCATVVRLYRGRYRYDYWGQGTQVTVSS | high polyreactivity
5 | QVQLVESGGGLVQAGGSLRLSCAASGGTFGQYAMGWYRLAPGKERELVAAITSSGGRTYYADSVKGRFTISRDNAKNTVYLQMNSLKPEDTAVYYCAADVQSRYVGEGDYWGQGTQVTVSS | high polyreactivity
6 | QVQLVESGAGLVQAGGSLSLSCAASGSIFGYYTMGWYRQAPGKERELVAAISRSGTSTFYADSVKGRFTISRDNAKNTVYLQMNSLKQEDTAVYYCNAVGSGYRSWYDYWGQGTKVTVSS | high polyreactivity
7 | QVQLVESGGGLVQAGGSLRLSCDASGSTFDVNTMGWYRQAPGKERELVAAIRLRGGSTYYADSVKGRFTISRDNAKNTVYLLMISLKPEDTAVYYCAADYTLIYDYCGQGTQVTVSS | low polyreactivity
8 | QVQLVDSGGGLVQAGGSLRLSCAASGRIFGPYAMVWYRQAPGKERELVASISYSGGSTYYADSVKGRFTISRDNAKNTVYLQMNSLKPEDTAVYYCAKGGYWGGYNYWGQGTQVTVSS | low polyreactivity
9 | QVQLVESGGCIVQAGGSLRLSCAASGSIFTYNAMGWYRQAPGKERELVAAISASGGRTYYADSVKGRFTISRDNAKNTVYLQMNSLKPEDTAVYYCAARILVYGLRRFDYWGQGTQVNVSS | high polyreactivity
10 | QVQLVESGGGLVQAGGSLRLSCAASGYIFNYYGMGWYRQAPGKDRELVATISRGASTNYADSVKGRFTISRDNARNTVYFQMNTLKPEDTAVYYCAYWGQRTQVTVSS | low polyreactivity
11 | QVQLVESGGGLVQAGGSLRLSCAASGLTLRRYAMGWYRQAPGKERELVASINSGTSTKYADSVKGRFTISRDNAKNTVYLQMNSLKPEDTAVYYCAAAGYFPTAGSRRAYYYWGQGTQVTVSS | high polyreactivity
12 | QVQLVESGVGLVQAGGSLRLSCAASGNIFWWNAMGWYRQAPGKERELVAAITSDSTTYYADSVKGRFTISRDNAKKTVYFQMNSLKPEDTAVYYCAAYSYGGQGVDYGYWGQGTQVNVSS | low polyreactivity
13 | QVQLVESGGGLVQAGGILRLSCAASGRIFYVNAMGWYRQAPGKERELVAAITWIDGSTYYADSVKGRFTISRDNAKNTVYLQMNSLKPEDTAVYYCAAGGYFYSFYYWGQGTQVTVSS | low polyreactivity
14 | QVQLVESGGCLVQAGGSLRLSCAASGRIIDFYTLGWYRQAPGKERELVAGINGSGASTYYADSVKGRFTISRDNAKNTVYLQMNSLKPEDTAVYYCAKDPGYYYDYDYWGQGTQVTVSS | low polyreactivity
15 | QVQLVESGGGLVQAGGSLRLSCAASGSIFASNAMGWYRQEPGKEREFVAAITWRTDRTYYADSVKGRFTISRDNEKNTVYLQMNSLKPEDTAGYYCAADTWFYRFYYWGQGTQVTVSS | high polyreactivity
16 | QVQLVESGGGLVQAGGSLRLSCAASGRIFLFYAMGGYRQAPGKERELVAAISSTDDTYYADSVKGRFTISRDNAKNTVYLQMNSLKPEDTAVYYCAAYSIISQSEMYYWGQGTQVTVSS | low polyreactivity
17 | QFQLVESGGGLVQAGGSLRLSCAASGSTLAPYVMGWYRQAPGKDRELVAVISTRTGRPYYADSVKGRFTISRDNAKNTVYLQMNSLKPEDTGVYYCAARKKTTYRDWGRHDYWGQGTQVTVSS | high polyreactivity
18 | QVQLVESGGGLGQAGGSLRLSCAASGRIFDYYAMGWYRQAPGKERELVATITSGSRTYYADSVKGRFTISRDNAKNTVYLQMNSLNPEDTAVYSCAAVKRSYYKGEYNAYDYWGQGTQVTVSS | high polyreactivity
19 | QVQLVESGGGLVQAGGSLRLSCAASGSTFPYYAMGWYRQAPGKERELVAVITSSGSRTYYADSVKGRFTISRDNAKNTVYLQMNSLKPEDTAVYYCARDTRYYRPYRSQYDYWGQGTQVTVSS | high polyreactivity
20 | QVQLVESAGGLVQAGGSLRLSCAAYGSIFGFYAMGWYRQAPGKERELVAAIDSGDSTNYADSVKGRFTISRDNAKNTVYLQMNSLKPEDTAVYYCNAEAWWYFWFDYWGQGTQVTVSS | low polyreactivity
21 | QVQLVESGGGLVQAGGSLRLSCAASGSTFYHYAMGWYRQAPGKERELVAAISSSGGRTYYADSVKGRFTISRDNAKNTVYLQMNSLKPEDTAVYYCAARAKTSGSIEDYWGQGTQVTVSS | high polyreactivity
22 | QVQLVESGGGLVQAGGSLRLSCAASGIIFPFYMGWYRQAPGKEREFVADITYSGGSTYYADSVKGRFTISRDNAKNTVYLQMNSLKPEDTAVYYCAAKFYWRGQSFRSGNFYWGQGTQVTVSS | high polyreactivity

Row | Sequence | polyreactivity (PSR sort gate)
23 | QFQLVESGGGLVQAGGSLRLICDASGSIFYPYTIGWYRQAPWKERQLVAAITWDGGNTYYADSVKGRFTISRDNAKNTVYLQMNSLKREDTAVYYCAAVTSGWGTYRMYYWGQGTQETVSS | high polyreactivity
24 | QVQLQESGGGLVQAGGSLRLSCAASGTISVAAYMAWYRQAPGKEREYVASIGYGATTYYADSEKGTFTISRDNAKNTVYLQMNSLKPGDTAVYYCAVDRSPQYRYLYYWGQGTQVTVCS | high polyreactivity
25 | QVQLVESGGGLVQAGGILRFSCAASGRTFKYYAMGWYRQAPGKERELVAAISYNGGSTFYADSVKGRFTISRDNAKNTVYLQLNSLKPEDTAVYYCAAGPRGTGKYYWGQGTQVTVSS | high polyreactivity
26 | QVQLVESGGGLVQAGGSLRLSCAASGSTFGPYARGWSRQAPGKERELVSTITRNGGSTYYADSVKGRFTISRDNAKNTVYLQMNSLKPEDTAVYYCNAEGRWSSFTQRMDYWGQGTQVTVSS | low polyreactivity
27 | QVHLVESGGGLVQSGGSLRLSCAASGRIFYYNAMGWYRQAPGKERELVAAITSSSGSSTYYADSVKGRFTISRDNAKNTVYLQMNSLKPEDTAVYYCAADATFIIRYLSRSDYWGQGTQVTVSS | low polyreactivity
28 | QVQLVESGGGLVQAGGSLRLSCAASGNTFNIYAMGWYRQAPGKETEFVAAITVSDTSTYYADSVKGRFTISRDSAKNTVYLQMKSLKPEDTAVYYCNADWWGTYDYYYWGQGTHVTVSS | low polyreactivity
29 | PVQLVESGGGLVQAGGSLRLSCAASGFIFSWYAMGWYRPAPGKDRELVAAISRSGGSTYADSVKGRFTIARDNAKNTVYLQMNSLKPEDTAVYYCAAGSYWSYWDSRYDYWGQGTQVTVSS | low polyreactivity
30 | QVQLVESGGGLVQAGCSLRLSCAASGSTIYTYTMGWYRQAPGKERELVAAISSSGGDTYYADSVKGRFTISRDNAKNTVYLQMNSLKPEDTAVYYWDALGAFPSLEFDYWGQGTHVTVSS | low polyreactivity
31 | QVQLVESGGGLVQAGGSLRLSCAASGRTLYRYAMGWYRQAPGKERELVAAIRSGGRTNYADSVKGRFTISRDNAKNTVYLLMNSLKPEDTAVYYCAARTLRYPSTYDYWGQGTQVSVSS | high polyreactivity
32 | QVQLVESGGGLVQAGGSLRLSCAASGSTFVAYAMGWYRQAPGKERELVAAISSVGRTNYADSVKGRFTISRDNAKNTVYLQMNSLIPEDTAVYYCNVEPGGITRQEYDYWGQGTQVTVSS | high polyreactivity
33 | QVQLVESGGGLFQAGGSLRLSCAASGSTFKRYAMGWYRQAPGKERELVAAITLSGGNTYYADSVKGRFTISRYNAKNTVYLQMNSLKPEDTAVYYCAARRYRGYDYWGQGTQVTVSS | high polyreactivity
34 | QVQLVESGGGLVQAGGSLRLSCAASGSIFRSYAMGWYRPAPGKERELVASITWRGGRTYYADSVKGRFTISRDNAKNTVYLQMNSLKPEDTAVYYCAVLWTPAGGYYFRYDYWGQGTQVTVSS | low polyreactivity
35 | QVQLVESGGGLVQAGGSLRLSCAASGYTFRFNAMGWYRQAPGKEREFVAAIDFGGAGTYYADSVKGRFTISRDNAKNNVYLQMHSLKPEDTAVYYCNARDGVTSEFDYWGQGTQVTVSS | low polyreactivity
36 | QVQLVESGGGLVQAGGSLRLSCAASGLIFKIYAMGWYRQAPGKERELVASISSNGGTYYADSVKGRFTISRDNAKKTVYLQMNSLKPEDTAVYYCNAKRVARYQYGASYNYWGQGTQVTVSS | high polyreactivity
37 | QVQLVESGAGLVQAGGSLRLSCAASGSTLVYNDMGWYRQAPGKDREFVAAIRSNDGSTYYADSVKGRFTISRDNAKNTVYLQMNSLKPEDTAVYYCAKDSRNVYWDYGYWGQGTQVTVSS | low polyreactivity
38 | QVQLEESGGGLVQAGGSLRLSCAASGRIFVIYAMGWYRQAPGKERELVAVITSGGRTYYADSVNGRFTISRDNAKNTVYLQMNRLKPEDTAVYYCAARTGRGFEYWGQGTQVTVSS | high polyreactivity
39 | QVQLVESGGGLVQAGGSLRLSCAASGSTFTLYAMGWYRQAPGKERELVATITGSGGSTNYADSVKGRFTISRDNAKNTVYLQMNSLKPEDTAVYYCAAYNPFYYKFDYWGQGTQVTVSS | high polyreactivity
40 | QVQLVESGGGLVQAGGSLRLSCAASGSTFSRNAMGWYRQAPGKERELVAAITSGGRTYYADSVKGRFTISRDNAKNTVYLQMNSLKPEDTAVYYCAAVHRYPIHYDYWGQGTQVTVSS | low polyreactivity
41 | QVQLVESGGGLVQAGGSLRLSCAASGSIFARNAMGWSRQAPGKERELVAGISRRGGSTYYADSVKGRFTISRDNAKNTVYLQMNSLKPEDTAVYYCNAVVYSPPYDYWGQGTQVTVSS | high polyreactivity
42 | QVQLVESCGGLVQAGGSLRLSFAASGSILVRYAMGWYRQAPGKERELVAAITSGGSTYADSVKGRFTISRDNAKNTVYLQMNSLKPEDTAVYYCAADAYGYGGDSWGQGTLVTVSS | low polyreactivity
43 | QVQLVESGGGLVQAGGSLRLSCAASGRIFYYYAMGWYRQAPRKERELVASINSGGSTYYADSVKGRFTISRDNAKNTVYLQMNSMKPEDTAVYYCAAGFQLVKGYLSGRAAYYYWGQGTQVTVSS | high polyreactivity
